This is an account of results in US20230203161A1 (TENEOBIO, published 2023).

Assay [1] addresses T1, human Prostate Specific Membrane Antigen (PSMA) (human, UniProt Q04609 1-750).
T1 construct: whole, on cells; also called Glutamate Carboxypeptidase II; FOLH1
The experiment in a line: cell binding, flow cytometry, LNCAP cells. Background: Flow cytometry measures light scatter and fluorescence of single cells or particles in a stream.

Assay [2] deals with T1, human Prostate Specific Membrane …. The experiment in a line: cell binding, flow cytometry, 22Rv1 cells.
The target is the same in assay [3]. The experiment in a line: cell binding, flow cytometry, PC3-PSMA cells.
Assay [4] shares this target. The experiment in a line: cell binding, flow cytometry, MDA-PCa-2b cells.
For assay [5] the target is unchanged. The experiment in a line: cell-based or functional assay.
Assay [6] shares this target. The experiment in a line: flow cytometry on LNCaP cells. As for the experimental part:
Briefly, 50,000 target cells were stained with a dilution series of purified UniAbs™ for 30 minutes at 4° C. Following incubation, the cells were washed twice with flow cytometry buffer (1×PBS, 1% BSA, 0.1% NaN₃) and stained with goat F(ab′)₂ anti-human IgG conjugated to R-phycoerythrin (PE) (Southern Biotech, cat. #2042-09) to detect cell-bound antibodies. After a 20-minute incubation at 4° C., the cells were washed twice with flow cytometry buffer and the mean fluorescence intensity (MFI) was measured by flow cytometry. The MFI of cells stained with secondary antibody alone were used for determination of background signal and binding of each antibody was converted to fold over background. […] In some experiments EC50 values were calculated using GraphPad Prism 7.
Column 1 indicates the clone ID of the HCAb. Column 2 indicates binding to LNCaP cells measured as fold over the background MFI signal.

T1 sequence (Q04609 whole entry): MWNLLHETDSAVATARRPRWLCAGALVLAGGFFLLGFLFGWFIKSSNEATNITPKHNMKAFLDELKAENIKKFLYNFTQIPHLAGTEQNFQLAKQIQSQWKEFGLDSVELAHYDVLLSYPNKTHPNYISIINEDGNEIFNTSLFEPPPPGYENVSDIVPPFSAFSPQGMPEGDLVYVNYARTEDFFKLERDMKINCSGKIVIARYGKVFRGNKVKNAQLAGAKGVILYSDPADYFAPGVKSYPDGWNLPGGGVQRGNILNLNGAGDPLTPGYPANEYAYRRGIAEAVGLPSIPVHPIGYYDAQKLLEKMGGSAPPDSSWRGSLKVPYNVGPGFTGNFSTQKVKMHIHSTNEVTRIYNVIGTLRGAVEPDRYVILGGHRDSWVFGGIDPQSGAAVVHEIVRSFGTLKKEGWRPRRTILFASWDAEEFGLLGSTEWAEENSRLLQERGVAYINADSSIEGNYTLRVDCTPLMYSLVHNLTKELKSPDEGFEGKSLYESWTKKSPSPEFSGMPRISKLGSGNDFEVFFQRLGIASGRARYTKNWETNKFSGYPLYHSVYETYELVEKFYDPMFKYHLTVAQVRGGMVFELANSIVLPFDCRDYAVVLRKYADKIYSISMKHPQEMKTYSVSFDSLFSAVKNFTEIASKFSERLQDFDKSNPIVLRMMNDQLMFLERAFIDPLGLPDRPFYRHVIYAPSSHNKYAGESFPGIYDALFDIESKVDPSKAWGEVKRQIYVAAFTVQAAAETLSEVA

B1: monoparatopic PSMA×CD3 bispecific antibody 346181×CD3 (bispecific antibody)
chain 1: QLQLQESGPGLVKPSETLSLTCTVSGGSISSSNYFWGWIRQSPGKGLEWIGSIDYSGYTYYNPSLKSRVTISVDTSKNQFSLKLSSVTAADTAVYNCARHKAATADFDYRGQGTLVTVSS
chain 2: EVQLVESGGGLVQPGRSLRLSCAASGFTFDDYAMHWVRQAPGKGLEWVSGISWNSGSIGYADSVKGRFTISRDNAKNSLYLQMNSLRAEDTALYYCAKDSRGYGDYRLGGAYWGQGTLVTVSS
chain 3: not shown
With B1, the concentration for a half-maximal effect (EC50) (commonly the concentration that produces a half-maximal response) in assay [1] came out at 17 nM. In assay [2], this molecule yielded an EC50 of 58 nM. In assay [3], this molecule yielded an EC50 of 30 nM. The molecule also came in with a concentration giving a half-maximal response (EC50) in assay [4] of 28 nM. In assay [5], the “IFNγ EC50, 22Rv1 cells” value is 174 nM; the “IFNγ EC50, LNCAP cells” value was 63 nM; the “IFNγ EC50, MDA-PCa-2b cells” value stood at 116 nM; the “IFNγ EC50, PC3-PSMA cells” value was found to be 10.1 nM. Further, in assay [5], the “IL-2 EC50, LNCAP cells” value was 575 nM; the “IL-2 EC50, MDA-PCa-2b cells” value came to 38.5 nM; the “IL-2 EC50, PC3-PSMA cells” value is 4.1 nM; the “Kill EC50, 22Rv1 cells, resting T-cells” value came out at 52.8 nM. In assay [5], the “Kill EC50, LNCAP cells, resting T-cells” value was determined as 14.6 nM; the “Kill EC50, MDA-PCa-2b cells, resting T-cells” value came out at 23.6 nM; the “Kill EC50, PC3-PSMA cells, resting T-cells” value was determined as 3.7 nM.

B2: biparatopic anti-PSMA×CD3 antibody 350123×CD3 (bispecific antibody)
chain 1: QLQLQESGPGLVKPSETLSLTCTVSGGSISSSNYFWGWIRQSPGKGLEWIGSIDYSGYTYYNPSLKSRVTISVDTSKNQFSLKLSSVTAADTAVYNCARHKAATADFDYRGQGTLVTVSSGGGGSGGGGSQVQLVESGGGVVQPGRSLRLSCAASGFSFSRYGMHWVRQAPGKGLEGVAVIWYDGSNRYYADSVKGRFTISRDNSKNTLYLQMNSLRAEDTAVYYCAREPRIGYYYESSGYYSLDYRGQGTLVTVSS
chain 2: EVQLVESGGGLVQPGRSLRLSCAASGFTFDDYAMHWVRQAPGKGLEWVSGISWNSGSIGYADSVKGRFTISRDNAKNSLYLQMNSLRAEDTALYYCAKDSRGYGDYRLGGAYWGQGTLVTVSS
chain 3: not shown
B2: the concentration giving a half-maximal response (EC50) in assay [1] came out at 2 nM. The same molecule had a 50% effective concentration (EC50) in assay [2] of 3 nM. Also, the midpoint of the response in assay [3], the EC50, lay at 6 nM. This molecule displayed an EC50 in assay [4] of 2 nM. Moreover, in assay [5], the “IFNγ EC50, 22Rv1 cells” value came out at 380 nM; the “IFNγ EC50, LNCAP cells” value was found to be 3.29 nM; the “IFNγ EC50, MDA-PCa-2b cells” value stood at 0.9 nM; the “IFNγ EC50, PC3-PSMA cells” value turned out to be 1.01 nM. In assay [5], the “IL-2 EC50, LNCAP cells” value amounted to 3.73 nM; the “IL-2 EC50, MDA-PCa-2b cells” value amounted to 1.11 nM; the “IL-2 EC50, PC3-PSMA cells” value came out at 1.1 nM; the “Kill EC50, 22Rv1 cells, resting T-cells” value was 0.42 nM. In assay [5], the “Kill EC50, LNCAP cells, resting T-cells” value worked out at 0.84 nM; the “Kill EC50, MDA-PCa-2b cells, resting T-cells” value is 0.41 nM; the “Kill EC50, PC3-PSMA cells, resting T-cells” value came out at 0.4 nM.

B3: anti-PSMA heavy-chain antibody (HCAb) clone ID 345509 (antibody, V domains shown)
VH: QVQLVESGGGLVQPGGSLRLSCAASGFSFSSYGMHWVRQAPGKGLEGVAVIWYDGSNKYYADSVKGRFTISRDNSKNTMYLQMNSLRAEDTAVYYCAREPRIGYYYESSGYYSLDYRGQGTLVTVSS
notes: Heavy chain-only antibody (UniAb)
Consider B3, for which the “fold over background MFI” value in assay [6] was found to be 37 fold over background.

B4: anti-PSMA heavy-chain antibody (HCAb) clone ID 345510 (antibody, V domains shown)
VH: QVQLVESGGGVVQPGRSLRLSCAASGFSFSSYGMHWVRQAPGKGLEWVAVIWYDGSNKYYADSVKGRFTISRDNSKNTMYLQMNSLRAEDTAVYYCAREPRIGYYYESSGYYSLDYRGQGTLVTVSS
notes: as for B3
With B4, in assay [6], the “fold over background MFI” value is 13 fold over background.
